Laboratory results taken from the nanobody polyreactivity screen of Harvey et al. (2022).

assay: yeast display, Sf9 membrane polyspecificity reagent, FACS + sequencing; frameworks hold sequencing errors
Summary of the method: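 After 36–48 hours of galactose induction, yeast (Saccharomyces cerevisiae BJ5465) displaying a synthetic nanobody library were stained at 4 °C for 1 hour with 10% biotinylated, detergent-solubilized Sf9 membrane reagent. Streptavidin microbeads enriched the stained cells before FACS sorting into low and high (top ~1%) gates on anti-HA and streptavidin fluorescence. Each clone's polyreactivity label reflects its gate of origin.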

Row | Sequence | polyreactivity (PSR sort gate)
1 | QVQLVESGGGLVQAGGSLRLSCAASGLTFTYYAMGWYRQAPGKERELVAAISWSGGSTYYADSVKGRFTISRDKAKNTVYLQMNSLKPEDTAVYYCAAVDPFTPYDRTYTTDGRESDYWGQGTQVTVSS | low polyreactivity
2 | QVQLVESGGGLVQAGGSLRLSCAASGLTFTYYAMGWYRQAPGKERELVAAITGGARTYYADSVKGRFTISRDNAKNTVYLQMNSLKPEDTAVYYCATQGAQKRYKYNYWGQGTQVTVSS | high polyreactivity
3 | QVQLVESGGGLVQAGGSLRLSCAASGLTFVDNAMGWYRQAPGQERELVAAITKRGGRTYYADSVKGRFTISRDNAKNTVYLQMNSLKPEDTAVNYCARESGNDSSRRLDYWGQGSQVTVSS | low polyreactivity
4 | QVQLVESGGGLVQAGGSLRLSCAASGLTFVDNAMGWYRQAPRKERELVAGITQSGGSTNYADSVKGRFTISRDNAKNTVYLQMNSLKPEDTAVYYCAKDTYRAYFRWEYGYWGQGTQVTVSS | low polyreactivity
5 | QVQLVESGGGLVQAGGSLRLSCAASGLTFVEYAMAWYRQAPGKERELVAAITSTDGTNYADSVKGRFTISRDNAKNTVYIQMNSLKPADTAVYYCFTLAQDFYFWYYYWGQGTQVTVSS | high polyreactivity
6 | QVQLVESGGGLVQAGGSLRLSCAASGLTFVKNVMGWYRQAPGKERELVAAISRRGGSTYYADSVKGRFTISRDNAKNTVYLQMNSLKPEDTAVYYCNAVLNQLSYIYPAVGYWGQGTQVTVSS | high polyreactivity
7 | QVQLVESGGGLVQAGGSLRLSCAASGLTFVNYAMGWYRQAPGKERELVATISKTGGSTYYADSVKGRFTISRDNAKNTVYLQMNSLKPEDTAVYYCAARRARRSGYYYWGQGTQVTVSS | high polyreactivity
8 | QVQLVESGGGLVQAGGSLRLSCAASGLTFVSYVMGWYRQAPGKERELVAAISSSGGRTYYADSVKGRFTISRDNAKNTVYLQMNSLKPEDTAVYYCAVYGYHEGGYWGQGTQVTVSS | high polyreactivity
9 | QVQLVESGGGLVQAGGSLRLSCAASGLTFVTYVMGWYRLAPGKERELVAAISYSGGSTYYADSVKARFTISRDNAKNTVYLLMNSLKPEDTAVYYCAAEWYGYEEDDYWGQGTQVTVSS | low polyreactivity
10 | QVQLVESGGGLVQAGGSLRLSCAASGLTFVTYVMGWYRPAPGKERELVAAISYSGGSTYYADSVKGRFTISRDNAKNTVYLQMNSLKPEDTAVYYCAAEWYGYQEDDYWGQGTQVTVSS | low polyreactivity
11 | QVQLVESGGGLVQAGGSLRLSCAASGLTFVWYVMGWYRQAPGKERELVAAITSGGTTYYADSVKGRFTISRDNAKNTVYLQMNSLKPEDTAVYYCAAQWAGYGDLPWPYSVIVEFYYWGQGTQVTVSS | low polyreactivity
12 | QVQLVESGGGLVQAGGSLRLSCAASGLTFVYNAMGWYRQAPGKERELVADISYDGGGTYYADSVKGRFTISRDNAMNTVYLQMNSLKPEDTAVYYCAKRAFGSQGEISYTPPGYDSWGQGTQVTVSS | low polyreactivity
13 | QVQLVESGGGLVQAGGSLRLSCAASGLTFVYYAMGWYRQAPGKERELVAAISGVGSTHYADSVKGRFTISRDNANNTVYLQMNSLKPEDTAVYYCNADYAYFWGWYGDWGQGTQVTVSS | low polyreactivity
14 | QVQLVESGGGLVQAGGSLRLSCAASGLTFWRYTMGWYRQAPGKERELVAVITYRGGSTYYADSVKGRFTISRDNAKNTVYLQMNSLKPEDTAVYYCAAGRRTYGLTYDYWGQGTQVTVSS | high polyreactivity
15 | QVQLVESGGGLVQAGGSLRLSCAASGLTFWYYAMGWYRQAPGKERELVARITRSGVGTYYADSVKGRFTISRDNAKNTVYLQMNSLKPEDTAVYYCNARYQYSWVRYGYDYWGQGTQVTVSS | high polyreactivity
16 | QVQLVESGGGLVQAGGSLRLSCAASGLTFWYYGMGWYRQAAGKERELDAAISKTGGRTYYADSVKGRFTISRDNAKNTVYLQMNSLKPEDTAVYYCAADTDVLKGTTGFEYWGQGTQVTVSS | low polyreactivity
